This note sets out measurements from patent publication US20080064629A1, “Amphiregulin as a Protective Agent in Acute Hepatic Injury” (priority 2004, published 2008).

One assay relates to rat hepatocytes. Description: DNA synthesis ([3H]thymidine incorporation) in cultured rat hepatocytes. It is filed as cell-based. Particulars: increasing concentrations of AR, 30 h of treatment. The protocol:
For DNA synthesis, rat hepatocytes were plated to a density of 3×10^4 cells/well in 96-well plates coated with collagen in MEM medium supplemented with 10% FCS. Five hours after plating, the medium was changed and cells were maintained in absence of serum for another 20 hours. DNA synthesis was assayed after 30 h of treatment with AR. A pulse of [^3H]thymidine was administered (1 μCi/well)(Amersham Biosciences, Piscataway, N.J., USA) 22 h after the addition of AR. Cells were harvested, and the incorporation of thymidine was determined with a scintillation counter. Evaluations were made of the effect of AR on DNA synthesis in the presence of MEK1 inhibitor, PD98059, PI-3K inhibitor, LY294002, p38 MAPK inhibitor, SB202190, JNK inhibitor, SP600125, and of the EGF-R tyrosine kinase activity inhibitor, PD153035—all supplied by Calbiochem.
(In general: Uptake of a labelled nucleoside into DNA is a usual measure of proliferation.)

The test system of the next assay is male C57/BL6 mice. Description: Acute liver damage induced by CCl4 in mice, treatment with AR. Format: in vivo. Particulars: AR 9.5 μg/mouse i.p. 0.5 h before and 12 h after CCl4. The protocol:
The experiments were carried out in compliance with the guidelines of the University of Navarra relating to the use of laboratory animals. Cirrhosis was induced with CCl4 in male Wistar rats as described elsewhere [(16) Castilla-Cortazar, I., Garcia, M., Muguerza, B., Quiroga, J., Perez, R., Santidrian, S., Prieto, J. 1997. Hepatoprotective effects of insulin-like growth factor I in rats with carbon tetrachloride-induced cirrhosis. Gastroenterology 113:1682-1691). Two-thirds PH or sham operations were performed on male Wistar rats (150 g) and male C57/BL6 mice (20 g) according to the method of Higgins and Andersen [(17) Higgins, G. M., Andersen, R. M. 1931. Experimental pathology of liver: restoration of liver of the white rat following partial surgical removal. Arch. Pathol. 12:186-202. (18) Latasa, M. U., Boukaba, A., García-Trevijano, E. R., Torres, L., Rodríguez, J. L., Caballería, J., Lu, S. C., López-Rodas, G., Franco, L., Mato, J. M., et al. 2001. Hepatocyte growth factor induces MAT2A expression and histone acetylation in rat hepatocytes. Role in liver regeneration. FASEB J. 10.1096/fj.00-0556fje. (19) Chen, L., Zeng, Y., Yang, H., Lee, T. D., French, S. W., Corrales, F. J., García-Trevijano, E. R., Avila, M. A., Mato, J. M., and Lu, S. C. 2004. Impaired liver regeneration in mice lacking methionine adenosyltransferase 1A. FASEB J. 18: 914-916]. Following sedation, in the sham operated animals the liver was exposed and then returned to the abdominal cavity. […] At the indicated timepoints, mice were subjected to blood sampling and the sera were analysed for alanine and aspartate aminotransferase (ALT and AST) as described elsewhere [(16) and (21) Lasarte, J. J., Sarobe, P., Boya, P., Casares, N., Arribillaga, L., López-Díaz of Cerio, A., Gorraiz, M., Borrás-Cuesta, F., Prieto, J. 2003. […]

Assay [1] relates to cultured mouse hepatocytes. Description: Antiapoptotic signaling pathways (Western blot of phosphorylation) in cultured mouse hepatocytes. Format: cell-based. Particulars: AR 20 nM, different times. The procedure:
Hepatocytes were isolated from male Wistar rats (150 g) and C57/BL6 mice (20 g) by perfusion with collagenase (Gibco-BRL, Paisley, UK) as described elsewhere [(18), (20)]. Cells (5×10^5 cells per well) were plated onto 6-well plates coated with collagen (type I collagen, Collaborative Biomedical, Bedford, Mass., USA). Cultures were maintained in MEM medium supplemented with 10% fetal calf serum (FCS), non-essential amino acids, glutamine 2 mM and antibiotics (all supplied by Gibco-BRL). After 2 h of incubation, the medium was removed and cells were again cultured in the same medium with 5% FCS. Where applicable, hepatocytes were treated with IL-1β or TNFα from Roche (Mannheim, Germany), HGF or forskolin from Calbiochem (San Diego, Calif., USA), IL6 from RD Systems (Wiesbaden-Nordenstadt, Germany), or PGE2 from Alexis QBiogene (Carlsbad, Calif., USA).
Homogenates from liver samples and isolated hepatocytes were subjected to Western blot analysis as described elsewhere [(19, (20)]. Antibodies used were: affinity purified and biotinylated polyclonal antibody specifically targeted to murine AR (BAF989)(RD Systems); specific antibodies for the p17 subunit of active caspase-3 (9664S), phosphorylated Akt (Ser473) (9271S) and phosphorylated STAT3 (Tyr^705) (9131S) (Cell Signaling, Beverly, Mass., USA); ERK1/2 (06-182), phosphorylated EGF-R (Tyr^1173)(05-483) and STAT3 (06-596)(Upstate Biotechnology, Charlottesville, Va., USA). All other antibodies were from Santa Cruz Biotechnology (Santa Cruz, Calif., USA): BclxL (sc8392), Bcl2 (sc7382), EGF-R (sc-03), phosphorylated ERK1/2 (Tyr^204) (sc7383), Akt (sc5298), JNK (sc571), and phosphorylated JNK (Thr^183/Tyr^185) (sc6254).
For orientation: Immunoblotting shows a protein as a band on a membrane.

Setting [2] is: 24 h after injection of CCl4 (1 μl/g i.p.).

B1: amphiregulin (protein)
chain: SVRVEQVVKPPQNKTESENTSDKPKRKKKGGKNGKNRRNRKKKNPCNAEFQNFCIHGECKYIEHLEAVTCKCQQEYFGERCGEKSMKTHSMIDSSLSK
notes: polypeptide growth factor belonging to the EGF family, ligand of EGF receptor; human recombinant AR (Sigma) used
Turning to B1, the “DNA synthesis, incorporation of [3H]thymidine to DNA” value with rat hepatocytes is “stimulating the incorporation of [^3H]thymidine to DNA in a dose-dependent manner”. Moreover, the “degree of histological damage (liver, H&E)” value in the assay on male C57/BL6 mice (24 h after CCl4) is “decreased”. Further, in the assay on male C57/BL6 mice (setting [2]), the “serum level of ALT” value was “clearly attenuated” and the “serum level of AST” value is “clearly attenuated”. Also, in assay [1], the “phosphorylation of Akt” value is listed as “increased phosphorylation”, the “phosphorylation of ERK1/2” value is given as “increased phosphorylation” and the “phosphorylation of STAT3” value is given as “stimulate phosphorylation”.
